Source: patent US20070099837A1

Biological target: human zFGF5 (human) (UniProt O76093)
Experiment: cell-based or functional assay

Sequence of human zFGF5 (human) (O76093 28-207): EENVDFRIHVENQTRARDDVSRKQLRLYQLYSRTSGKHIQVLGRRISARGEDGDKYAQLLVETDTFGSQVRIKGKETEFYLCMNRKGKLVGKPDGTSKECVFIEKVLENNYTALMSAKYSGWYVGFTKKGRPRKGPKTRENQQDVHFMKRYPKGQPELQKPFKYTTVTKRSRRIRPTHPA

FGFR3α-IIIc/Fc soluble receptor (Fc fusion)
Cell Proliferation (percent of control), BAF3 cells expressing FGFR3α-IIIc with zFGF5, soluble receptor at 0 fold-excess (percent of control): 100
Cell Proliferation (percent of control), BAF3 cells expressing FGFR3α-IIIc with zFGF5, soluble receptor at 0.8 fold-excess (percent of control): 85
Cell Proliferation (percent of control), BAF3 cells expressing FGFR3α-IIIc with zFGF5, soluble receptor at 1.6 fold-excess (percent of control): 66
Cell Proliferation (percent of control), BAF3 cells expressing FGFR3α-IIIc with zFGF5, soluble receptor at 3.2 fold-excess (percent of control): 37
Cell Proliferation (percent of control), BAF3 cells expressing FGFR3α-IIIc with zFGF5, soluble receptor at 6.3 (printed 6..3) fold-excess (percent of control): 5
Cell Proliferation (percent of control), BAF3 cells expressing FGFR3α-IIIc with zFGF5, soluble receptor at 12.5 fold-excess (percent of control): 1
Cell Proliferation (percent of control), BAF3 cells expressing FGFR3α-IIIc with zFGF5, soluble receptor at 25 fold-excess (percent of control): 0.2
Cell Proliferation (percent of control), BAF3 cells expressing FGFR3α-IIIc with zFGF5, soluble receptor at 50 fold-excess (percent of control): 0
Cell Proliferation (percent of control), BAF3 cells expressing FGFR3α-IIIc with zFGF5, soluble receptor at 100 fold-excess (percent of control): 0

FGFR2α-IIIb/Fc soluble receptor (from UniProt P21802 22-378) (Fc fusion)
Cell Proliferation (percent of control), BAF3 cells expressing FGFR3α-IIIc with zFGF5, soluble receptor at 0 fold-excess (percent of control): 100
Cell Proliferation (percent of control), BAF3 cells expressing FGFR3α-IIIc with zFGF5, soluble receptor at 62.5 fold-excess (percent of control): 101
Cell Proliferation (percent of control), BAF3 cells expressing FGFR3α-IIIc with zFGF5, soluble receptor at 125 fold-excess (percent of control): 90
Cell Proliferation (percent of control), BAF3 cells expressing FGFR3α-IIIc with zFGF5, soluble receptor at 250 fold-excess (percent of control): 91
Cell Proliferation (percent of control), BAF3 cells expressing FGFR3α-IIIc with zFGF5, soluble receptor at 500 fold-excess (percent of control): 101
Cell Proliferation (percent of control), BAF3 cells expressing FGFR3α-IIIc with zFGF5, soluble receptor at 1000 fold-excess (percent of control): 99
